Ki, logD and IC50 data for 5 compounds are collected here from paper PMC12058244, “Design and Synthesis of ^68Ga‐Labeled Peptide‐Based Heterodimers for Dual Targeting of NTS1 and GRPR” (Chemmedchem, 2025).

For data set [1], the target named is NTS1. As to conditions: cited from earlier work. As for the experimental part: The design of novel heterodimers was based on SAR studies. […] For this reason, the NT analogue JMV 438 ([Lys^8–Lys^9]NT[8–13]) was widely studied and validated as a positive control (NTS1 K i=4.0 nM, Chart 1).[19] Recently, in the attempt to improve the binding affinity towards NTS1, lipophilic residues were incorporated in the NT[8–13] sequence.[20] Among the new analogues, JMV 2007 (Chart 1), in which a trimethylsilylala ...

The nature of data set [2]: Octanol/water partition coefficient (LogD7.4). Format: physicochemical. On the procedure: Determination of the Octanol/Water Partition Coefficient (LogD7.4) LogD determination was performed in triplicate and repeated over three radiolabelings. Approximately 3.7 MBq of the ^68Ga‐radiolabeled peptide were added to qsp 500 μL of PBS (Gibco, France, pH=7.4) and 500 μL of octanol (Sigma Aldrich, USA) in microcentrifuge tubes. Tubes were shaken then vortexed and centrifuged at room temperature (3 min, 4000 rpm). 100 μL of each layer were sampled in separate test tubes and measured in a gamma‐counter (Wizard2, PerkinElmer, USA). LogD7.4 value was obtained by calculating the log10 of the ratio between the organic phase activity (cpm) and the aqueous phase activity (cpm). Both activities were decay‐corrected.

Read-outs that look alike come from different tables or passages of the source.

Turning to [Lys^8–Lys^9]NT[8–13] [JMV 438], the Ki (commonly the dissociation constant of the complex between target and ligand, obtained from inhibition or displacement) in data set [1] is 4 nM. Turning to `CC[C@H](C)[C@H](NC(=O)[C@H](Cc1ccc(O)cc1)NC(=O)[C@@H]1CCCN1C(=O)[C@H](CCCCN)NC(=O)[C@H](CCCCN)NC(=O)CCNC(=O)CCNC(=O)[C@H](CC(C)C)NC(=O)C[C@H](O)[C@H](CC(C)C)NC(=O)[C@H](Cc1c[nH]cn1)NC(=O)CNC(=O)[C@@H](NC(=O)[C@H](C)NC(=O)[C@H](Cc1c[nH]c2ccccc12)NC(=O)[C@H](CCC(N)=O)NC(=O)[C@@H](Cc1ccccc1)NC(=O)CCNC(=O)CCNC(=O)CN1CCN(CC(=O)O)CCN(CC(=O)O)CCN(CC(=O)O)CC1)C(C)C)C(=O)N[C@@H](C[Si](C)(C)C)C(=O)O` [[^68Ga]Ga‐JMV 7253, metal not drawn], in data set [2] (shake-flask octanol/PBS (Gibco) pH 7.4, 500 μL each, ~3.7 MBq 68Ga-peptide, room temperature, centrifuged 3 min 4000 rpm, gamma-counter, triplicate repeated over three radiolabelings, mean±SD, read-out: LogD7.4), the logD is -2.46 ± 0.07. `CC[C@H](C)[C@H](NC(=O)[C@H](Cc1ccc(O)cc1)NC(=O)[C@@H]1CCCN1C(=O)[C@H](CCCCN)NC(=O)[C@H](CCCCN)NC(=O)CCNC(=O)[C@H](CCC(=O)NCCC(=O)NCCC(=O)N[C@H](Cc1ccccc1)C(=O)N[C@@H](CCC(N)=O)C(=O)N[C@@H](Cc1c[nH]c2ccccc12)C(=O)N[C@@H](C)C(=O)N[C@H](C(=O)NCC(=O)N[C@@H](Cc1c[nH]cn1)C(=O)N[C@@H](CC(C)C)[C@@H](O)CC(=O)N[C@@H](CC(C)C)C(N)=O)C(C)C)NC(=O)CCNC(=O)CN1CCN(CC(=O)O)CCN(CC(=O)O)CCN(CC(=O)O)CC1)C(=O)N[C@@H](CC(C)C)C(=O)O` [[^68Ga]Ga‐JMV 7266, metal not drawn]: the logD in data set [2] (pH 7.4) was -2.62 ± 0.13. Take “[Lys^8‐Lys^9‐TMSAla^13]NT[8–13] [JMV 2007, NT[8-13] analogue with TMSAla at position 13]”: in data set [1], the IC50 (in general, the point on the concentration scale where inhibition reaches its midpoint) is 0.02 nM. In turn, `CC[C@H](C)[C@H](NC(=O)[C@H](Cc1ccc(O)cc1)NC(=O)[C@@H]1CCCN1C(=O)[C@H](CCCCN)NC(=O)[C@H](CCCCN)NC(=O)CCNC(=O)CCNC(=O)[C@H](CC(C)C)NC(=O)C[C@H](O)[C@H](CC(C)C)NC(=O)[C@H](Cc1c[nH]cn1)NC(=O)CNC(=O)[C@@H](NC(=O)[C@H](C)NC(=O)[C@H](Cc1c[nH]c2ccccc12)NC(=O)[C@H](CCC(N)=O)NC(=O)[C@@H](Cc1ccccc1)NC(=O)CCNC(=O)CCNC(=O)CN1CCN(CC(=O)O)CCN(CC(=O)O)CCN(CC(=O)O)CC1)C(C)C)C(=O)N[C@@H](CC(C)C)C(=O)O` [[^68Ga]Ga‐JMV 7110, metal not drawn] showed a logD in data set [2] (pH 7.4) of -2.74 ± 0.21.
